Consider eight molecules from patent publication US20230295316A1 (FRED HUTCHINSON CANCER CENTER, published 2023).

For test [1], the target named is T1, human interleukin-3 (IL-3) receptor alpha-chain (CD123), on cells (human, UniProt P26951 19-378).
T1 construct: whole, on cells; also called human CD123
Description: flow cytometry (APC-A), mAb reacted with 5, 10 or 15 equivalents of B10 + secondary antibody, RS4;11 cells overexpressing human CD123 [CONT.]. The text has this: FIG. 4. Parental CD123-negative human RS4;11 ALL cells and RS4;11 cells engineered to overexpress human CD123 were used for flow cytometric phenotyping of a series of anti-CD123 mAbs (11F11, 5G4, 10C4, 1H8) that were either left unmodified or were reacted with 5, 10, or 15 equivalents of B10. A secondary mAb-only control is also shown.

In test [2] the target is T2, Hs_CD123_6His-Avi (CD123 ECD-His-Avi fusion protein) (human, UniProt P26951 19-303).
T2 construct: The signal peptide is marked only by bold type, so its limits cannot be read here and were not guessed; also called His-Avi tagged peptide encompassing the ECD of human CD123
T2 sequence: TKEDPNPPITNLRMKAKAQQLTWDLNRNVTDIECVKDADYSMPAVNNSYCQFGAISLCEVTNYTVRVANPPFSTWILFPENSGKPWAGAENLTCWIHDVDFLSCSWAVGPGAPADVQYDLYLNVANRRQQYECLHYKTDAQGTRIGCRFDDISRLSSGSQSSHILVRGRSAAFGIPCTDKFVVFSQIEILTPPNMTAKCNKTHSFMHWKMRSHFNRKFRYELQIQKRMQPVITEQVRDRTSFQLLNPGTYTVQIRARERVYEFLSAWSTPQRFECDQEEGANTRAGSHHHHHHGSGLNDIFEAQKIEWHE
The experiment in a line: SPR (Biacore T-100), univalent affinity; antibody captured on the CM4 chip, human CD123 ECD as analyte. As to the method:
FIGS. 21A-21B. Surface plasmon resonance (Biacore T-100) analyses were performed to rigorously/precisely determine univalent binding affinities of recombinant, fully human versions of the anti-human CD123 monoclonal antibodies 1B5, 1D9, and 1E3, using human IgG1 (FIG. 21A) and human IgG4 frameworks (FIG. 21B). For these experiments, a peptide encoding the complete extracellular portion of human CD123 was used, and the antibodies were captured on the biosensor chip (CM4) via a Fc gamma-specific goat anti-human IgG and amine coupling.
Background: SPR reads the build-up and loss of mass on a sensor chip optically.

B1: 11F11 reacted with B10 (antibody, V domains shown)
VH: EVTLVESGGGLEQPGGSLSLSCAASGFTFTDYYMSWVRQPPGKALEWLALIRNKANGYTTEYSASVKGRFTISRDNSQSILYLQMNALRAEDSATYYCARQVRNYYGYEEDALDYWGQGTSVTVSS
VL: DIVLTQSPASLAVSLGQRATISCRASESLDFYGNSFMHWYQQKSGQPPKLLISRASNLESGIPPRFSGSGSRTDFTLTIDPVEADDVATYYCQQSYEDPYTFGGGTKLEIK
modifications: B10 on lysine amines, positions not given; B10 (isothiocyantophenethyl-ureido-closo-decaborate(2-)) on lysine amines, positions not given
notes: also called B10-conjugated 11F11
Consider B1, for which the binding result in test [1] was “binds”.

B2: 123-ATX1D9, fully human recombinant antibody, human IgG1 framework (antibody)
heavy: not shown
light: QSALTQPPSASGSPGQSVTISCTGTSSDVGGYNYVSWYQQHPGKAPKIMIYEVNKRPAGVPDRFSGSKSGNTASLTVSGLQAEDEAHYYCNSYTDSNNLIFGGGTKLTVLGQPKANPTVTLFPPSSEELQANKATLVCLISDFYPGAVTVAWKADGSPVKAGVETTKPSKQSNNKYAASSYLSLTPEQWKSHRSYSCQVTHEGSTVEKTVAPTECS
notes: Lambda light chain; also called 1D9 (human IgG1)
As usually defined, the Kd is the equilibrium constant for the complex coming apart. Low readings indicate higher affinity, high ones lower affinity. A word on the koff: it is a measure of how fast the partners let go of each other. For orientation: kon means a measure of how fast the partners come together. Lower therefore signals slower complex formation. B2: in test [2], the equilibrium dissociation constant (Kd) stood at 0.563 nM, the off-rate (koff) is 3.68e-05 s⁻¹ and the kon was 65500 M⁻¹ s⁻¹.

B3: 123-ATX1D9, fully human recombinant antibody, human IgG4 framework (antibody)
heavy: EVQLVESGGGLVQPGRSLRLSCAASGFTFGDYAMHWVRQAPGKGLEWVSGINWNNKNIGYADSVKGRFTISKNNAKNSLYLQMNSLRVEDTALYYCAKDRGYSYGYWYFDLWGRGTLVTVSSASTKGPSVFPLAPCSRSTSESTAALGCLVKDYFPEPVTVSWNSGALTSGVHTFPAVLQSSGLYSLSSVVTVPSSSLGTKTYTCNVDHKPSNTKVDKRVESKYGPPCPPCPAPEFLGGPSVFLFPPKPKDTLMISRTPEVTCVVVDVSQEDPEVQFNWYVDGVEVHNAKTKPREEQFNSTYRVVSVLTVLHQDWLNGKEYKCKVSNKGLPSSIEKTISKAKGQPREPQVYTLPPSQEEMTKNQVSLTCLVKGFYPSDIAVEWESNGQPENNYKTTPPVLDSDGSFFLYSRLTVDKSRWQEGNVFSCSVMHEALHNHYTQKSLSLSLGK
light: QSALTQPPSASGSPGQSVTISCTGTSSDVGGYNYVSWYQQHPGKAPKIMIYEVNKRPAGVPDRFSGSKSGNTASLTVSGLQAEDEAHYYCNSYTDSNNLIFGGGTKLTVLGQPKANPTVTLFPPSSEELQANKATLVCLISDFYPGAVTVAWKADGSPVKAGVETTKPSKQSNNKYAASSYLSLTPEQWKSHRSYSCQVTHEGSTVEKTVAPTECS
notes: Lambda light chain; also called 1D9 (human IgG4)
Consider B3, for which, in test [2], binding was put at a Kd of 0.594 nM, the koff amounted to 4.19e-05 s⁻¹ and the association rate constant (kon) was 70600 M⁻¹ s⁻¹.

B4: 123-ATX1E3, fully human recombinant antibody, human IgG1 framework (antibody)
heavy: not shown
light: EIVLMQSPGTLSLSPGERVTLSCRASQTFSSSYLAWYQQKPGQAPRLLIYGASSRATGIPDRFSGSGSGTDFTLTINRLEPEDFAVYYCQQYGRSPFTFGPGTKLDIKRTVAAPSVFIFPPSDEQLKSGTASVVCLLNNFYPREAKVQWKVDNALQSGNSQESVTEQDSKDSTYSLSSTLTLSKADYEKHKVYACEVTHQGLSSPVTKSFNRGEC
notes: also called 1E3 (human IgG1)
With B4, in test [2], the dissociation constant Kd was 0.652 nM, the off-rate (koff) stood at 6.15e-05 s⁻¹ and the kon is 94400 M⁻¹ s⁻¹.

B5: 123-ATX1E3, fully human recombinant antibody, human IgG4 framework (antibody)
heavy: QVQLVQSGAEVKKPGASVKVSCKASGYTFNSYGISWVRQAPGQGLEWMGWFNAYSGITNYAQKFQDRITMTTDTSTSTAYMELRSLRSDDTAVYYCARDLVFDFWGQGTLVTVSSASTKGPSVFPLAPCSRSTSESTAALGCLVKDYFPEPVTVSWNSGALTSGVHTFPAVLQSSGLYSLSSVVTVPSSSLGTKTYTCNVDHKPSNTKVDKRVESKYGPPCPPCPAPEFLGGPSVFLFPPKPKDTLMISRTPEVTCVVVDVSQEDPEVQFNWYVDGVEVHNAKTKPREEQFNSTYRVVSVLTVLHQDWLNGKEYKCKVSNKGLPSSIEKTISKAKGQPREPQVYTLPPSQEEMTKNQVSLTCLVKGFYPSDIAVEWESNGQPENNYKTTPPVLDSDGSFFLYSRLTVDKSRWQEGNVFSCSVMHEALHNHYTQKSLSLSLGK
light: EIVLMQSPGTLSLSPGERVTLSCRASQTFSSSYLAWYQQKPGQAPRLLIYGASSRATGIPDRFSGSGSGTDFTLTINRLEPEDFAVYYCQQYGRSPFTFGPGTKLDIKRTVAAPSVFIFPPSDEQLKSGTASVVCLLNNFYPREAKVQWKVDNALQSGNSQESVTEQDSKDSTYSLSSTLTLSKADYEKHKVYACEVTHQGLSSPVTKSFNRGEC
notes: also called 1E3 (human IgG4)
For B5, in test [2], the dissociation constant (Kd) turned out to be 0.792 nM, the koff came to 7.02e-05 s⁻¹ and the kon was found to be 88600 M⁻¹ s⁻¹.

B6: 1H8 reacted with B10 (antibody, V domains shown)
VH: EVKLVESEGGLVQPGSSMKLSCTASGFTFSDYYMAWVRQVPEKGLEWVANIDDEGSSTYYLDSLKSRFIISRDNAKNILYLQMTSLKSEDTATYYCARGTTQTSFFVHWGQGTLVTVSA
VL: DIVLTQSPASLAVSLGQRATISCRASQSVSSSSYSFMHWYQKKPRQPPKLLIKYASTLEAGVPARFSGSGSGTDFTLNIHPVEEEDTATYYCQHSWEIPYTFGGGTKLEIK
modifications: B10 on lysine amines, positions not given; B10 (isothiocyantophenethyl-ureido-closo-decaborate(2-)) on lysine amines, positions not given
notes: also called B10-conjugated 1H8
For the molecule B6, the binding result in test [1] is recorded as “binds”.

B7: 10C4-B10 (B10-conjugated 10C4 anti-CD123 mAb) (antibody, V domains shown)
VH: QVQLKESGPGLVAPSQNLSITCTVSGFSLTTYDINWIRQPPGKGLEWLGVIWTGGGTNYNSAFMSRLSISKDNSKSQVFLKMNSLQTDDTAMYYCVRGDTYHYALDFWGQGTSVTVSS
VL: DIVMSQSPSSLAVSAGEKVTMSCKSSQSLLSSGTRKNYLAWYQQKPGQSPKLLIYWASTRESGVPDRFTGSGSGTDFTLTISSVQAEDLAVYYCKQSYILFTFGSGTKLEIK
modifications: B10 on lysine amines, positions not given; B10 (isothiocyantophenethyl-ureido-closo-decaborate(2-)) on lysine amines, positions not given
For B7, the binding result in test [1] is “binds”.

B8: 5G4 reacted with B10 (antibody, V domains shown)
VH: DVQLQESGPGLVKPSQSLSLTCTVTGYSITSDYVWNWIRQFPGNKLEWMAYISYSGTTSYNPSLSSRISITRDTSSNQFFLQLNSVTSEDTATYYCARGLDYWGQGTSVTVSS
VL: QIVLTQSPAIMSVSLGERVTMTCTASSSVTSSYFHWYQQKPGSSPKLWIYSTSNLASGVPARFSGSGSGTSYSLTISSMEAEDAATYYCHQYHRSPRTFGGGTKLEIK
modifications: B10 on lysine amines, positions not given; B10 (isothiocyantophenethyl-ureido-closo-decaborate(2-)) on lysine amines, positions not given
notes: also called B10-conjugated 5G4
On to B8, for which the binding result in test [1] was “binds”.
